Results as given in patent US20100221248A1 (MIT, published 2010).
Numbering of substitutions follows the chain as printed.

T1: human FcγRIIB, soluble (human, UniProt P31994 43-217, limits assumed)
T1 construct: also called hFcγRIIB
T1 sequence (looked up): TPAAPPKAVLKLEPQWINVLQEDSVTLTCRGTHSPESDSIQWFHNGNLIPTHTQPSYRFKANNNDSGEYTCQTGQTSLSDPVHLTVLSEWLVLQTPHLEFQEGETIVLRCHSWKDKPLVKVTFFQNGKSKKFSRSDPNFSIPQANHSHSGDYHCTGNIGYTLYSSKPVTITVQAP

T2: human FcγRIIA, 131R allele, soluble (human, UniProt P12318 34-217, limits assumed)
T2 construct: also called hFcγRIIA
T2 sequence (looked up): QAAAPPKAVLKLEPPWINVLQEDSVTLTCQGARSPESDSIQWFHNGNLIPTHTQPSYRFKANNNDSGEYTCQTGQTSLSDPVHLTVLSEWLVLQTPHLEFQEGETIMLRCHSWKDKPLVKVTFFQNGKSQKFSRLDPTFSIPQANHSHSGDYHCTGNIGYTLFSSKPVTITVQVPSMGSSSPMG

T3: human FcγRIIA, 131H allele, soluble (human, UniProt P12318 34-217, limits assumed)
T3 construct: also called hFcγRIIA
T3 sequence (looked up): T2 sequence (looked up) with R134H

B1: MBP-IIA726 (designed binder)
chain: LGENLYFQSVSDVPGDLEVVAATPTSLLISWCTHLHWDYYRIFYGETGGNSPVQEFTVPALCPGATISGLKPGVDYTITAYAVTVGGDDWPISINYRTEIDEPSQ
notes: Fn3 domain as a C-terminal fusion to MBP; It was first expressed in Rosetta(DE3), then in Rosetta-gami 2 to promote the disulfide bond between the BC and DE loops; For PBMC labelling it was biotinylated and complexed with streptavidin-PE; also called MBP fusion of IIA726; not shown: limits and vector linker not stat
B2: MBP-IIA827 (designed binder)
chain: B1 chain with I92S
notes: Produced in Rosetta-gami 2; not shown: limits and vector linker not stat
B3: IIA726 (mutant Fn3 domain, yeast surface-displayed clone) (designed binder)
chain: VSDVPGDLEVVAATPTSLLISWCTHLHWDYYRIFYGETGGNSPVQEFTVPALCPGATISGLKPGVDYTITAYAVTVGGDDWPISINYRTEIDEPSQ
notes: It contains a pair of Cys residues in the BC and DE loops; also called yeast surface-displaying IIA726
B4: IIA827 (mutant Fn3 domain, yeast surface-displayed clone) (designed binder)
chain: B3 chain with I83S
notes: Derived from IIA726 by a single mutation, printed '188S'; also called clone IIA827
B5: MBP-IIIA537 (designed binder)
chain: LGENLYFQSVSDVPRDLEVVVATPTSLLINWDLPFSDSYRITYGETGGNSPVQGFTVPGTESIATISGLKPGVDYTITVYAVASSGSNSYPISINYRTEIDKPSQ
notes: Fn3 domain as a C-terminal fusion to MBP, expressed in E. coli Rosetta(DE3); For PBMC labelling it was biotinylated and complexed with streptavidin-PE; also called MBP fusion of IIIA537; not shown: limits and vector linker not stat
B6: MBP-IIIA626 (designed binder)
chain: B5 chain with L33M, T42A, G54E, E61D, I63L, A83T
notes: Fn3 domain as a C-terminal fusion to MBP, expressed in E. coli Rosetta(DE3); For PBMC labelling it was biotinylated and complexed with streptavidin-PE; also called MBP fusion of IIIA626; not shown: limits and vector linker not stat

How the values were obtained:
[1] = target: T1, human FcγRIIB, soluble; assay: SPR (Biacore T100), MBP-Fn3 immobilized, soluble FcR injected
Description: (§1) Surface Plasmon Resonance Analysis. Steady state affinity measurements were performed on a Biacore T100 biosensor. MBP-Fn3 fusion proteins were immobilized to CM5 sensor chips (Biacore) by standard amine coupling. […] Dissociation constants were calculated after subtraction of background binding to a control flow cell using Biacore T100 Evaluation software.

[2] = target: T2, human FcγRIIA, 131R allele, soluble; assay: SPR (Biacore T100), steady state, MBP-Fn3 immobilized, soluble FcR injected
Description: as §1

[3] = target: T3, human FcγRIIA, 131H allele, soluble; assay: as above
Description: as §1

[4] = target: T4, RIIA131R tetramer (biotinylated human FcγRIIA 131R complexed to streptavidin-PE) (human, UniProt P12318 34-217; P22629 37-163, limits assumed, PE conjugate; singly biotinylated); assay: yeast display titration with PE-tagged tetramer, flow cytometry; apparent (avid) Kd; parent clone IIA726 from the seventh FACS sort
T4 construct: Biotinylated FcR incubated with streptavidin-PE at a 4:1 molar ratio; Kd values measured against it are apparent (avid) values; also called RIIA tetramer; PE-tagged RIIA tetramer
Description: (§2) The yeast cells were washed and analyzed by flow cytometry.
(§3) Characterization of Individual Clones. Plasmid DNA was recovered from the later library generations (Zymoprep II kit) and transformed into competent DH5a bacteria (Invitrogen). Individual colonies (usually ten) were grown, miniprepped, and sequenced, as well as re-transformed into EBY100 yeast (EZ Yeast Transformation Kit, Zymo Research). The resulting clones were cultured in SD-CAA and induced in SG-CAA for analysis. To rapidly compare different clones, 0.1 OD.ml aliquots of yeast were labeled with a low and a high concentration of PE-tagged RIIA (1 nM, 30 nM) or RIIIA (0.3 nM, 10 nM) tetramer for 1 hour at RT prior to flow cytometry (Coulter Epics XL). The apparent tetramer Kd was estimated from the ratio of the two mean fluorescence readings. […] The labeling volumes (in PBSA) were chosen to give at least a 10-fold excess of FcR over Fn3. The yeast cells were centrifuged and washed with 0.5 ml PBSA for analysis by flow cytometry. The Kd value was determined by fitting the data to the equation y=A[tetramer]/([tetramer]+Kd)+B.

[5] = target: T4, RIIA131R tetramer (biotinylated human …); assay: flow cytometry titration of yeast surface-displayed IIA726 with streptavidin-PE RIIA131R tetramer, 2 h at room temperature
Description: as §2, §3

[6] = target: T5, RIIB tetramer (biotinylated human FcγRIIB complexed to streptavidin-PE) (human, UniProt P31994 43-217; P22629 37-163, limits assumed, PE conjugate; singly biotinylated); assay: flow cytometry titration of yeast surface-displayed IIA726 with streptavidin-PE RIIB tetramer, 2 h at room temperature
T5 construct: Biotinylated FcR incubated with streptavidin-PE at a 4:1 molar ratio; also called PE-tagged RIIB tetramer
Description: as §2, §3

[7] = target: T4, RIIA131R tetramer (biotinylated human …); assay: yeast display with PE-tagged tetramer, flow cytometry; apparent (avid) Kd; clone IIA827, IIA726 with the single mutation printed 188S
Description: as §3

[8] = target: T5, RIIB tetramer (biotinylated human …); assay: yeast display, flow cytometry with PE-tagged tetramer
[9] = target: T6, human FcγRIIIA on the surface of human peripheral blood mononuclear cells (non-lymphocyte gate) (human, UniProt P08637 17-254); assay: flow cytometry of human PBMCs with biotinylated MBP-Fn3 complexed to streptavidin-PE
T6 construct: whole, on cells; The target is inferred from the stated aim of the experiment, which was recognition of FcRs expressed on cell surfaces; also called RIIIA on PBMCs
Text: To determine whether the Fn3 domains were able to recognize FcRs expressed on cell surfaces, each MBP-Fn3 fusion protein was biotinylated, complexed with streptavidin-PE and used to label human peripheral blood mononuclear cells (PBMCs).

[10] = target: T2, human FcγRIIA, 131R allele, soluble; assay: SPR (Biacore T100), MBP-Fn3 immobilized, soluble FcR injected
Description: as §1

[11] = target: T3, human FcγRIIA, 131H allele, soluble; assay: as above
Description: as §1

T4 sequence (P22629 37-163 limits assumed, one chain of several): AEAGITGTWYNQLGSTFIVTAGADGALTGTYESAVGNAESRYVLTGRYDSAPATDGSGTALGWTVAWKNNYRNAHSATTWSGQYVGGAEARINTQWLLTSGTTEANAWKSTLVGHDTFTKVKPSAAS
T6 sequence (P08637 17-254): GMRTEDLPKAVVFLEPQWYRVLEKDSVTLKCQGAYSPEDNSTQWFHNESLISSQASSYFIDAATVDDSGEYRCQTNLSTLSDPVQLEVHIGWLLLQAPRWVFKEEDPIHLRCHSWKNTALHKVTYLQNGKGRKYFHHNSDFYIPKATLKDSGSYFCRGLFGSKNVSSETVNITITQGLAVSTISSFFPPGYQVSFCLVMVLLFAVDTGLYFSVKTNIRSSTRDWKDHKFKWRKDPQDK
T5 sequence (P22629 37-163 limits assumed, one chain of several): as the sequence (P22629 37-163 limits assumed, one chain of several) above

Row | Binder | binding result [1] | binding result [9] | binding result [10] | binding result [11] | further results
1 | B1 | no binding | – | – | – | –
2 | B2 | – | – | – | – | Kd [2]: 850 nM; Kd [3]: 6200 nM
3 | B3 | – | – | – | – | Kd [4]: 1.2 nM; EC50 (read off the curve) [5]: ~1 nM; binding result [6]: no binding (tested: 100 nM)
4 | B4 | – | – | – | – | Kd [7]: 0.54 nM; binding result [8]: no binding (tested: 100 nM)
5 | B5 | no binding | binds | no binding | no binding | –
6 | B6 | no binding | binds | no binding | no binding | –
